# “Also recorded” adds a separate entry of the source. Ends that are not written are not given here.
# Legend:
# fibrinogen [1] = molecular target: T1, fibrinogen (Homo sapiens, UniProt P02671+P02675+P02679); experiment: Fibrinogen binding assay by ELISA; settings: plate coated with 1 mg/ml fibrinogen, various concentrations, anti-His6-peroxidase detection
# T1 sequence (P02671 20-629 limits assumed): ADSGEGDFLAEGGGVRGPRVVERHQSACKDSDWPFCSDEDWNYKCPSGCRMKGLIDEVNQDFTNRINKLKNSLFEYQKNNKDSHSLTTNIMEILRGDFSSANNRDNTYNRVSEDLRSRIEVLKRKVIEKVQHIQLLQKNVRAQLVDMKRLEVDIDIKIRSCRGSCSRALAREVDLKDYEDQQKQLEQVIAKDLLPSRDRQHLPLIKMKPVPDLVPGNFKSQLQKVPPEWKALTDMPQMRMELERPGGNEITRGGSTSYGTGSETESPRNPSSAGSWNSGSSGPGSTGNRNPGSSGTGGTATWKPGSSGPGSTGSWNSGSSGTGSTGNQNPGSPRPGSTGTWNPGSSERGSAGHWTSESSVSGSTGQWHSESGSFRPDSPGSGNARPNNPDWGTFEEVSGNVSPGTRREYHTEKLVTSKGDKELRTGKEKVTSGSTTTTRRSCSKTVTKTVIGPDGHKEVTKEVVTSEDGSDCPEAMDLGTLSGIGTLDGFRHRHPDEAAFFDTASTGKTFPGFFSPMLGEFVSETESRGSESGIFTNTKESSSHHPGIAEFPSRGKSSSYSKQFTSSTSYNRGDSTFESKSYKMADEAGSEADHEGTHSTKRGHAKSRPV
# T1 sequence (P02675 31-491): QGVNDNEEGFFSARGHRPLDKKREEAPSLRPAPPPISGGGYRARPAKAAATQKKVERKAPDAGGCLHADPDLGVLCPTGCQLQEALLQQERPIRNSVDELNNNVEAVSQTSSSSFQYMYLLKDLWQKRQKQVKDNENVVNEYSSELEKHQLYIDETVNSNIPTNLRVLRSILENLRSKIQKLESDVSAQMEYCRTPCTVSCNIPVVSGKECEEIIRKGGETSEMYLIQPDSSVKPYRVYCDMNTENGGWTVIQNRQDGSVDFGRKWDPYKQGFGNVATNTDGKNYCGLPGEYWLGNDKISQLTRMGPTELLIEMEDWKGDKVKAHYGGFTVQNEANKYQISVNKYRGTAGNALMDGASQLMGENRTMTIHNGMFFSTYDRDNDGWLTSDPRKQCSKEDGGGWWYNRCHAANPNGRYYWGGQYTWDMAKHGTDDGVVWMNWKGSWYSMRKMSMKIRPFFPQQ
# T1 sequence (P02679 27-433 limits assumed): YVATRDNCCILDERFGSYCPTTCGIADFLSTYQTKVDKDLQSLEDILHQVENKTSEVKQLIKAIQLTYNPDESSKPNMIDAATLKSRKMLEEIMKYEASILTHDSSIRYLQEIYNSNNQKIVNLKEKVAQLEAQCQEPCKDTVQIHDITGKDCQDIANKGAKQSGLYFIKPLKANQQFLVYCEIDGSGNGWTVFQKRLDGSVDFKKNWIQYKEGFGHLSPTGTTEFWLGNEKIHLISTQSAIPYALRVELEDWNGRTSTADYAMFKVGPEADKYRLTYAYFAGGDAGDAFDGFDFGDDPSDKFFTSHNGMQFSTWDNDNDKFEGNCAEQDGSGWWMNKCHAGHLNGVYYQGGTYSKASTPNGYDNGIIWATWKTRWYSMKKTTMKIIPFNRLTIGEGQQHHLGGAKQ
# Protocol: (§1) A polystyrene 96-well plate (Nunc® Maxisorp EUSA-plates) was coated with 1 mg/ml fibrinogen (Tisseel®, Baxter AG, Vienna) overnight at 4° C. and then blocked with blocking solution (PBS+1% BSA) for 2 hours at room temperature CRT). After washing three times with PBS, purified peptides were added in various dilutions to the plate and incubated for 1 hour at RT. After the three times washing with PBS, a monoclonal anti-His6-peroxidase antibody (Sigma-Aldrich, Vienna), diluted in PBS+0.1% Tween (Sigma-Aldrich, Vienna) was added and incubated for 1 hour at RT. Finally, the plate was washed three times with PBS again and wells were incubated with o-phenylenediaminehydrochlorid substrate. Absorbance was measured at 492 nm and 620 nm. For fibrin binding analysis, the plate was first coated with fibrinogen overnight at 4° C. and then incubated with 10 I.U./ml thrombin (Tisseel, Baxter AG, Vienna) for 30 minutes at 37° C. The following procedure was the same as described above. For the surface plasmon resonance (SPR) method fibrinogen was coupled to a gold sensor chip (10% COOH—(PEG)6-C11—SH, 90% OH(PEG)3-C11—SH; Reichert Analytical, NY, USA) by amine chemistry using EDC (1-ethyl-3-[3-dimethylaminopropyl]carbodiimide hydrochloride) and NHS (N-hydroxysuccinimide) (Pierce, Ill., USA). Uncoupled sites on the gold sensor chip were blocked with 1 M ethanolamine pH 8.5 (Sigma-Aldrich, MO, USA). The purified recombinant proteins and peptides were passed over the chip's surface at a flow rate of 0.4 ml/min to 0.8 ml/min and allowed to interact. The signals were detected and recorded at the Reichert SR7000 Surface Plasmon Resonance Analytical Instrument (Reichert Analytical, NY, USA). After each measurement the sensor chip surface was regenerated by a pulse with 100 mM phosphoric acid (Mallinckrodt Chemicals, NJ, USA) after each application of the samples. Association and dissociation signals were fitted to one association curve using a prism software calculation program.
# Purified, proteins and peptides in different concentrations were used for testing the binding affinity to fibrinogen and fibrin (FIG. 5).
# fibrinogen [2] = molecular target: T1, fibrinogen; experiment: Surface plasmon resonance (SPR) binding to fibrinogen coupled to gold sensor chip; settings: fibrinogen on sensor chip; fitted association curves
# Protocol: as §1
# [3] = system: mouse myoblast cell line (C2C12); experiment: Biological activity: viability (MTT) assay of mouse myoblast C2C12 cells; format: cell-based
# Protocol: A moose myoblast cell line (C2C12; ECACC (Sigma-Aldrich, Vienna)) was grown in Dulbecco's Modified Eagle Medium (DMEM) with 10% fetal calf serum (FCS). At 50-60% confluence cells were trypsinized and transferred to a 24-well plate (1×10^4/well).
# Following a 48-hour-culture period at 37° C., cells were washed with DMEM only and then covered with medium (DMEM+1% FCS) containing various concentrations of hFGF-2 or hFGF-2 peptides. After 48 hours number of viable cells was determined by adding 3-(4,5-dimethylthiazol-2-yl)-2,5-diphenyltetrazolium bromide (MTT, Sigma-Aldrich, Vienna) as previously described {M05}.
# [4] = 146 amino acid variant; cited from earlier work
binding affinity to fibrinogen (fibrinogen [1]),binding signal (SPR) (fibrinogen [2]),Substance,activity retained relative to the full length protein ([3]; relative to full length hFGF-2),"proliferative activity / cell growth effect ([3]; 48 hours, DMEM+1% FCS, MTT)",concentration dependence of biological activity ([3]; various concentrations),isoelectric point [4]
high affinity,weak and short binding signals,"EERGVVSIKGVCANRYLAMKEDGRLLASKCVTDECFFFERLESNNYNTYRSR (EERGVVSIKGVCANRYLAMKEDGRLLASKCVTDECFFFERLESNNYNTYRSR; not fully specified (C-terminus); cysteine pairing not given here) [pep1, recombinant truncated hFGF-2 peptide (68 aa) with C-terminal 6x HIS-tag, expressed as GST fusion in E. coli and cleaved]",,,,
high affinity,weak and short binding signals,"GVCANRYLAMKEDGRLLASKCVTDECFFFERLESNNYNTYRSR (GVCANRYLAMKEDGRLLASKCVTDECFFFERLESNNYNTYRSR; not fully specified (C-terminus); cysteine pairing not given here) [pep2, recombinant truncated hFGF-2 peptide (48 aa) with C-terminal 6x HIS-tag, ~5.2 kD]",approximately 50%,,,
high affinity,,"Human Fibroblast growth factor-2 [hFGF-2, reference compound]",,highest proliferative activity; also recorded: highest cell growth effect,concentration dependent biological activity,9.6

# Source: patent US20120316113A1, “FGF BASED FIBRIN BINDING PEPTIDES” (Baxter Healthcare S.A., priority 2011, published 2012)
